The text below walks through data of PMC4177580, “Diverse functional evolution of serine decarboxylases: identification of two novel acetaldehyde synthases that uses hydrophobic amino acids as substrates” (BMC Plant Biology, 2014).

The target in one data set is T1, SlAAAD (Solanum lycopersicum, UniProt Q1KSC6).
T1 construct: gene AADC1A; recombinant from bacterial expression plasmid pTYB12 (IMPACT-CN)
T1 sequence (Q1KSC6 1-471): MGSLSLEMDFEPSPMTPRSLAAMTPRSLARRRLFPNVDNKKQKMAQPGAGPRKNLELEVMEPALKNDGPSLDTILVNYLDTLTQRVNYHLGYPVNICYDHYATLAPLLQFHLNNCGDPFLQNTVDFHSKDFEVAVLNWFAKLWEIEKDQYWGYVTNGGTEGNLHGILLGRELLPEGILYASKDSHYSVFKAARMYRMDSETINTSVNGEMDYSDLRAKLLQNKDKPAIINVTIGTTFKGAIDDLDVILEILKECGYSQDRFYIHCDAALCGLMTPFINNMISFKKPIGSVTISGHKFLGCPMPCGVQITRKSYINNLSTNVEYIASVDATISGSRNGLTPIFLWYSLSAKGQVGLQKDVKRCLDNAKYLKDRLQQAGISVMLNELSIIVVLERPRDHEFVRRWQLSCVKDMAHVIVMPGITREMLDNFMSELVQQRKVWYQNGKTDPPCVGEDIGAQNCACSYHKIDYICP
As to the kind of experiment: HPLC-EC decarboxylation assay. The data set is classed as biochemical. As to conditions: 5 mM substrate, 20 mM HEPES pH 7.5, 25°C, 10 min.

In a further data set the target is T2, AtSDC (Arabidopsis thaliana, UniProt Q9MA74).
T2 construct: gene SDC; recombinant from bacterial expression plasmid pTYB12 (IMPACT-CN)
T2 sequence (Q9MA74 1-482): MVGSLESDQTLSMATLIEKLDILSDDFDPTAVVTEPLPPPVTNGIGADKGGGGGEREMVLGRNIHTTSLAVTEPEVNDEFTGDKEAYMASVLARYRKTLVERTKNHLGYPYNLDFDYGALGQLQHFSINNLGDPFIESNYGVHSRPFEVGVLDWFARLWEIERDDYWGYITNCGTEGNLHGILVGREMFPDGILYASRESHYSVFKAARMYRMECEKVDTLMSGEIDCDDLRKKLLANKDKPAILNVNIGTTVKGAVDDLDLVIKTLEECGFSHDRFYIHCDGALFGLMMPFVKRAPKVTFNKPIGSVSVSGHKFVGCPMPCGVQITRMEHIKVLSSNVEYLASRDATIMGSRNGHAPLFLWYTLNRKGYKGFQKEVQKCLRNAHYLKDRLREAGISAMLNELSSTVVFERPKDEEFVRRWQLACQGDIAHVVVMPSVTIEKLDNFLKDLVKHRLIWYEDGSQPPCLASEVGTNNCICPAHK
As to the kind of experiment: HPLC-EC decarboxylation assay. Format: biochemical. As to conditions: 5 mM substrate, 20 mM HEPES pH 7.5, 25°C, 10 min.

Substrate in the data set “purified protein”: CC(C)C[C@H](N)C(=O)O
Briefly: purified protein. Particulars: 20 mM HEPES pH 7.5, 25°C, 5 min, hyperbolic regression.

Substrate in data set [1]: CSCC[C@H](N)C(=O)O
Briefly: peroxide assay (Pierce Quantitative Peroxide Assay Kit). The data set is classed as biochemical, Cicer arietinum. Particulars: 20 mM HEPES pH 7.5, 25°C, 5 min, hyperbolic regression. The text has this: (§1) peroxide assay (Pierce Quantitative Peroxide Assay Kit) on CaAAS

Substrate in data set [2]: N[C@@H](Cc1ccccc1)C(=O)O
Described as above. Format: biochemical, Cicer arietinum. Particulars: 20 mM HEPES pH 7.5, 25°C, 5 min, hyperbolic regression.
Excerpt: as §1

Substrate in data set [3]: N[C@@H](Cc1c[nH]c2ccccc12)C(=O)O
The description is as above. Particulars: 20 mM HEPES pH 7.5, 25°C, 5 min, hyperbolic regression. Format: biochemical, Cicer arietinum.
Excerpt: as §1

Substrate in data set [4]: CSCC[C@H](N)C(=O)O
Described as above. The data set is classed as biochemical, Medicago truncatula. Particulars: 20 mM HEPES pH 7.5, 25°C, 5 min, hyperbolic regression. The source says: (§2) peroxide assay (Pierce Quantitative Peroxide Assay Kit) on MtAAS

Substrate in data set [5]: N[C@@H](Cc1ccccc1)C(=O)O
The data set is described as above. The data set is classed as biochemical, Medicago truncatula. As to conditions: 20 mM HEPES pH 7.5, 25°C, 5 min, hyperbolic regression.
Excerpt: as §2

Substrate in data set [6]: N[C@@H](Cc1c[nH]c2ccccc12)C(=O)O
Described as above. Format: biochemical, Medicago truncatula. Particulars: 20 mM HEPES pH 7.5, 25°C, 5 min, hyperbolic regression.
Excerpt: as §2

Take `N[C@@H](Cc1ccccc1)C(=O)O` [phenylalanine]: the HPLC-EC decarboxylation assay entry on SlAAAD is “SlAAAD decarboxylation assay demonstrated activity towards tyrosine, dopa, phenylalanine and tryptophan”.
`N[C@@H](Cc1ccc(O)cc1)C(=O)O` [tyrosine]: the HPLC-EC decarboxylation assay result at SlAAAD was “SlAAAD decarboxylation assay demonstrated activity towards tyrosine, dopa, phenylalanine and tryptophan”.
Turning to `N[C@@H](CO)C(=O)O` [serine], at AtSDC, the HPLC-EC decarboxylation assay result is listed as “AtSDC only has activity towards serine”.

B1: CaAAS (Cicer arietinum) (protein)
chain: MGSLEGNNMLSMVVSNAKLAREEERQENINITNTNLTINQCIGETDANLKAIITHYVDTLTYSSLRNLGYPTNQDFNYDALASLFHFHLNNAGDPFVGSSFSLNSTKFEVGVLDWFAELWEIEKSDYWGYVTTGGTEGNLHGILVGREQFPDGILYTSQDSHYSIFKIARMYRMECVKVGSLLSGEIDCVELEASLLAHKDKPAIINLNIGTTMKGGIDDLDIVIQTLKKCGFTRDRFYIHCDGALFGIMLPFIKQAQRISFKKPIDSVTISGHKFLGCPSPCGVVITRLKYINELSRDVEIIASRDATITGSRCGHAPILLWYALKKKGLIGLKNEVHECIINARYLLDQLRDAGIGAMLNEFSNIVVFEKPLDDNFTRRWNLATKGNIAHVVVLMHVTKEMLDTFVREFIQKRSIWYKHGHFQPLCIANHVGSTNCVCSIHKLS
notes: recombinant from bacterial expression plasmid pTYB12 (IMPACT-CN)
By Km is commonly meant the substrate concentration at which the rate is half of its maximum. The kcat is the number of substrate molecules converted per active site and unit of time at saturation. Broadly, the kcat/Km is the turnover number divided by the Michaelis constant. As to B1, the Km was 4.60 ± 0.40 mM in “purified protein”, 1.62 ± 0.20 mM in data set [1], 0.09 ± 0.01 mM in data set [2] and 2.80 ± 0.70 mM in data set [3]. In addition, the kcat worked out at 0.467 s⁻¹ in “purified protein”, 0.351 ± 0.012 s⁻¹ in data set [1], 0.595 ± 0.009 s⁻¹ in data set [2] and 0.187 ± 0.016 s⁻¹ in data set [3]. In addition, the kcat/Km in “purified protein” was 100 M⁻¹ s⁻¹; in data set [1], 220 ± 10 M⁻¹ s⁻¹; in [2] it was 6600 ± 650 M⁻¹ s⁻¹; in data set [3], 70 ± 100 M⁻¹ s⁻¹.

B2: MtAAS (Medicago truncatula) (protein)
chain: MAMTFIPDAELLPTVVVNAKLSREEKHDEENIIGLTNLDVTKSIGETDANLDAIIAHYAQTITKYNMRNLGYPTNQDFNYEALAPLLQFHLNNAGDPFLGSSFSLNSMAFEVSVLDWFAKLWEIEKNEYWGYVTTGGTEGNLHGILAGREQLPDGILYTSQDSHYSIAKIAKMYRMKCVKVDSLLSGEIDCVQLEASLLAHKDKPAIINLNIGTTLKGGIDDLDLVIQTLNKCGFTRDRFYIHCDGALFGIMLPFIKQAPRISFKKPIDSVTISGHKFLGCPSPCGVLITRLKYMNALSRDVDIIASRDATITGSRCGHAPIFLWYALKKRGLIGLENEVHECIMKAHYLLNLLRDAGIGAMLNKFSNIVVFERPLDDHFTRRWNLASNKNTAHVVVLKHVTVEMLDSFVREFTEKQSIWYKDEQFQPPCIANDVGSRNCACSIHNLSRNC
notes: as for B1
Consider B2, for which the Km in data set [4] came out at 1.90 ± 0.20 mM; in [5], 0.02 ± 0.01 mM; in [6], 1.70 ± 0.30 mM; in “purified protein”, 7.60 ± 0.70 mM. The kcat in data set [4] amounted to 0.144 ± 0.006 s⁻¹; in data set [5] it was 0.358 ± 0.005 s⁻¹; in [6], 0.125 ± 0.008 s⁻¹; in the data set “purified protein”, 0.197 s⁻¹. Moreover, the kcat/Km stood at 80 ± 10 M⁻¹ s⁻¹ in data set [4], 17900 ± 2290 M⁻¹ s⁻¹ in [5], 70 ± 10 M⁻¹ s⁻¹ in data set [6] and 30 M⁻¹ s⁻¹ in “purified protein”.
